Laboratory results taken from patent publication US20260092115A1 (Chugai, published 2026).
Substitutions are numbered along the chain they refer to. Numbers in names are those of the source.

T1: human FcγRIIb extracellular domain, His-tagged (human, UniProt P31994 43-217)
T1 construct: extracellular domain; also called hFcγR IIb
T1 sequence (looked up): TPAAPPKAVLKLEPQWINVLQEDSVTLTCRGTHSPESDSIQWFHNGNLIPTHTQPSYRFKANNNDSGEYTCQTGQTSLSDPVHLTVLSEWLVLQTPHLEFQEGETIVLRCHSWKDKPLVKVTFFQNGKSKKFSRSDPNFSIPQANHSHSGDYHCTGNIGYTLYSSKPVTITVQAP

T2: human FcγRIIa, type R, extracellular domain, His-tagged (human, UniProt P12318 34-217)
T2 construct: extracellular domain; also called hFcγR IIa R
T2 sequence (looked up): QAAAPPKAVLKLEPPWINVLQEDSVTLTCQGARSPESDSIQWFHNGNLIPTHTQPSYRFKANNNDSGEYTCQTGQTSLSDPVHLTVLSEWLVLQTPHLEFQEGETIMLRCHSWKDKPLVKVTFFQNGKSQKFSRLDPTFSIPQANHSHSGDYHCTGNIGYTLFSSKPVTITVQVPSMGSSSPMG

T3: human FcγRIIa, type H, extracellular domain, His-tagged (human, UniProt P12318 34-217)
T3 construct: extracellular domain; also called hFcγR IIa H
T3 sequence (looked up): T2 sequence (looked up) with R134H

B1: 04H1654-KT462/04L1610-lam1//04H1656-HT445/04L1610-lam1 (antibody, human IgG1, lambda)
heavy 1: QVQLVESGGGVVQPGGSLRLSCAASGFTFSSKTMNWVRQAPGKGLEWVSSISTQSHYIYYARSVRGRFTISRDNAKNSLYLQMNSLRAEDTAVYYCARYGKREDMLWVFDYWGQGTLVTVSSASTKGPSVFPLAPSSKSTSGGTAALGCLVKDYFPEPVTVSWNSGALTSGVHTFPAVLQSSGLYSLSSVVTVPSSSLGTQTYICNVNHKPSNTKVDKRVEPKSCDKTHTCPPCPAPEFQWGPMVFLFPPKPKDVLMISRTPEVTCVVVDVSDEEPEVKFNWYVDGVEVHNAKTKPREEQYNATYRVVSVLPVLHQDWLNGKEYKCKVSNDALPAPIEKTISKAKGQPREPQVYTLPPSRKEMTKNQVSLTCLVKGFYPSDIAVEWESNGQPENNYKTTPPVLDSDGSFFLYSKLTVDKSRWQQGNVFSCSVMHEALHNHYTQKSLSLSP
heavy 2: QVQLVESGGGVVQPGGSLRLSCAASGFTFSSKTMNWVRQAPGKGLEWVSSISTQSHYIYYAESVRGRFTISRDNAKNSLYLQMNSLRAEDTAVYYCARYGAREDMLWVFDYWGQGTLVTVSSASTKGPSVFPLAPSSKSTSGGTAALGCLVKDYFPEPVTVSWNSGALTSGVHTFPAVLQSSGLYSLSSVVTVPSSSLGTQTYICNVNHKPSNTKVDKRVEPKSCDKTHTCPPCPAPELLAGPSVFLFPPKPKDVLMISRTPEVTCVVVDVSHEEPEVKFNWYVDGVEVHNAKTKPREEQYNATYRVVSVLPVLHQDWLNGKEYKCKVSNDALPKPDEETISKAKGQPREPQVYTLPPSREEMTKNQVSLTCLVKGFYPSDIAVEWESNGQPENNYKTTPPVLDSDGSFFLYSKLTVDKSRWQQGNVFSCSVMHEALHNHYTQESLSLSP
light: QSALTQPPSASGSPGQSVTISCEGPSTGVGDYNWVHWYQQHPGKAPKLMIYFTSKKPSGVPDRFSGSKSGNTASLTVSGLQAEDEADYYCQTYAAPLGPMFGGGTKLTVLGQPKAAPSVTLFPPSSEELQANKATLVCLISDFYPGAVTVAWKADSSPVKAGVETTTPSKQSNNKYAASSYLSLTPEQWKSHRSYSCQVTHEGSTVEKTVAPTECS
notes: Heterodimerized IgG1 (IGHG1*03) Fc variant
B2: 04H1654-KT461/04L1612-lam1//04H1656-HT443/04L1612-lam1 (antibody, human IgG1, lambda)
heavy 1: B1 heavy 1 with I337E
heavy 2: B1 heavy 2 with K335A, D337E
light: B1 light with N33T, W34Y
notes: as for B1
B3: 04H1654-KT461/04L1610-lam1//04H1656-HT443/04L1610-lam1 (antibody, human IgG1, lambda)
heavy 1: B1 heavy 1 with I337E
heavy 2: B1 heavy 2 with K335A, D337E
light: B1 light
notes: as for B1
B4: 04H1654-KT462/04L1612-lam1//04H1656-HT445/04L1612-lam1 (antibody, human IgG1, lambda)
heavy 1: B1 heavy 1
heavy 2: B1 heavy 2
light: B1 light with N33T, W34Y
notes: as for B1
B5: 04H1654-KT473/04L1610-lam1//04H1656-HT482/04L1610-lam1 (antibody, IgG1)
heavy 1: B1 heavy 1 with N439A, Y441T, Q443R, S445E
heavy 2: B1 heavy 2 with N439A, Y441T, Q443R, S445E
light: B1 light
notes: Heterodimerized IgG1 Fc variant with N434A/Y436T/Q438R/S440E; also called SW1610-ART6+ACT1

Tests used:
[1] = target: T1, human FcγRIIb extracellular domain, …; experiment: binding amount of this antibody divided by that of 04H1637-G1m/04L1610-lam1; SPR pH 7.4
Protocol: (§1) The interaction between the generated antibodies and human FcγRs was analyzed by the following method using Biacore T200. 50 mM Na-Phosphate, 150 mM NaCl, 0.05% Tween20 (pH 7.4) was used as the running buffer, and the assay was performed at 25° C. For the sensor chips, Series S SA (GE Healthcare) chips onto which CaptureSelect Human Fab-lambda Kinetics Biotin Conjugate (Thermo Fisher Scientific) was immobilized were used. The antibodies of interest were captured onto these chips and each FcγR diluted in the running buffer was allowed to interact with them. Chips were regenerated with 10 mM Glycine-HCl (pH 1.5) and 25 mM NaOH, and assay was performed by repeatedly capturing antibodies. The dissociation constants KD (mol/L) for FcγRs of each antibody were calculated using Biacore T200 Evaluation Software 2.0, using the 1:1 Langmuir binding model for FcγRIa and FcγRIIIa and the steady state affinity model for FcγRIIa. For FcγRIIb, the binding amount of FcγRIIb per unit amount of antibody was calculated by correcting the binding amount of FcγRIIb obtained from the sensorgram obtained by the measurement with the amount of antibody captured onto the chip surface.
(§2) “Relative value to KD between G1m and hFcRn” and “Relative value to KD between G1m and hFcγRs” are values obtained by dividing the KD value of 04H1637-G1m/04L1610-lam1 for hFcRn and for each FcγR by the KD value of each variant, respectively. “Relative binding amount” indicates the value obtained by dividing the binding amount of each variant to FcγRIIb by the binding amount of 04H1637-G1m/04L1610-lam1. […] It was shown that all of the generated heterodimerized antibodies had enhanced binding to FcγRIIa and FcγRIIIa as compared with 04H1637-G1m/04L1610-lam1 which has the constant region of native human IgG1.

[2] = target: T1, human FcγRIIb extracellular domain, …; experiment: SPR Biacore T200, 25C, pH 7.4; FcγRIIb at 1000 nM, corrected by captured antibody
Protocol: as §1

[3] = target: T4, human FcγRIIIa, allotype V158, extracellular domain, His-tagged (human, UniProt P08637 17-208); experiment: KD of 04H1637-G1m/04L1610-lam1 divided by KD of this antibody; SPR pH 7.4
T4 construct: extracellular domain; also called hFcγR IIIa V
Protocol: as §1, §2

[4] = target: T2, human FcγRIIa, type R, extracellular …; experiment: as above
Protocol: as §1, §2

[5] = target: T5, human FcγRIIIa, allotype F158, extracellular domain, His-tagged (human, UniProt P08637 17-208); experiment: as above
T5 construct: extracellular domain; also called hFcγR IIIa F
Protocol: as §1, §2

[6] = target: T3, human FcγRIIa, type H, extracellular …; experiment: as above
Protocol: as §1, §2

[7] = target: T6, human FcγRIa extracellular domain, His-tagged (human, UniProt P12314 16-292); experiment: as above
T6 construct: also called hFcγR Ia
Protocol: as §1, §2

[8] = target: T7, human FcRn (human, UniProt P55899 24-290; P61769 21-119); experiment: KD of 04H1637-G1m/04L1610-lam1 divided by KD of this antibody; SPR pH 6.0
T7 construct: Prepared by the method of WO 2010/107110; also called hFcRn
Protocol: The interaction between the generated antibodies and human FcRn was analyzed by the following method using Biacore T200. 50 mM Na-Phosphate, 150 mM NaCl, 0.05% Tween20 (pH 6.0) was used as the running buffer, and the assay was performed at 25° C. For the sensor chip, Series S SA (GE Healthcare) chips onto which CaptureSelect Human Fab-lambda Kinetics Biotin Conjugate (Thermo Fisher Scientific) was immobilized were used. The antibodies of interest were captured onto these chips and FcRn diluted in the running buffer was allowed to interact with them. Chips were regenerated with 10 mM Glycine-HCl (pH 1.5) and 25 mM NaOH, and assay was performed by repeatedly capturing antibodies. The dissociation constant for FcRn of each antibody was calculated using the steady state model, using Biacore T200 Evaluation Software 2.0.
“Relative value to KD between G1m and hFcRn” and “Relative value to KD between G1m and hFcγRs” are values obtained by dividing the KD value of 04H1637-G1m/04L1610-lam1 for hFcRn and for each FcγR by the KD value of each variant, respectively. “Relative binding amount” indicates the value obtained by dividing the binding amount of each variant to FcγRIIb by the binding amount of 04H1637-G1m/04L1610-lam1. […] It was shown that all of the generated heterodimerized antibodies had enhanced binding to FcγRIIa and FcγRIIIa as compared with 04H1637-G1m/04L1610-lam1 which has the constant region of native human IgG1. Furthermore, 04H1637-Kn462/04L1610-lam1//04H1637-H1441/04L1610-lam1, 04H1637-Kn462/04L1610-lam1//04H1637-H1445/04L1610-lam1, and 04H1637-Kn461/04L1610-lam1//04H1637-H1443/04L1610-lam1 were all shown to have enhanced binding to FcγRIIa compared to 04H1637-Kn125/04L1610-lam1//04H1637-H1076/04L1610-lam 1 which has the Fc region variant reported in WO 2013/002362.

T6 sequence (P12314 16-292): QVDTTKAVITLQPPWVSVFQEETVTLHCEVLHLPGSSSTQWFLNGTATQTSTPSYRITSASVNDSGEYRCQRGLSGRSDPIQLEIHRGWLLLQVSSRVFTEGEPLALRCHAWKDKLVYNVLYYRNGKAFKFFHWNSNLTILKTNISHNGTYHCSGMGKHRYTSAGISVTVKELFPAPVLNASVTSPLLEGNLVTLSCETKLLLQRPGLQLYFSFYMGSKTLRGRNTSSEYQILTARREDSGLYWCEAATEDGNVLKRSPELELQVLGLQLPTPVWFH
T7 sequence (P55899 24-290 limits assumed, chain 1 of 2): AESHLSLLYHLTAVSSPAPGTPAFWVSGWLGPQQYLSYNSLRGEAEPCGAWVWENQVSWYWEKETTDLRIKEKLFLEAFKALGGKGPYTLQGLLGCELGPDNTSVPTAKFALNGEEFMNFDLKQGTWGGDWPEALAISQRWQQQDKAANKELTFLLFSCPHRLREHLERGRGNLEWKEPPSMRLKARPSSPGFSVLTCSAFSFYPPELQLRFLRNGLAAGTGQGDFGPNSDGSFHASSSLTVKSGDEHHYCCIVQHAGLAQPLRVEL
T7 sequence (P61769 21-119 limits assumed, chain 2 of 2): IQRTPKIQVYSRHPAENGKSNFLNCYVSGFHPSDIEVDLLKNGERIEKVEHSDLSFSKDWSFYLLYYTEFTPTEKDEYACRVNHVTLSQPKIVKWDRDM
T5 sequence (P08637 17-208): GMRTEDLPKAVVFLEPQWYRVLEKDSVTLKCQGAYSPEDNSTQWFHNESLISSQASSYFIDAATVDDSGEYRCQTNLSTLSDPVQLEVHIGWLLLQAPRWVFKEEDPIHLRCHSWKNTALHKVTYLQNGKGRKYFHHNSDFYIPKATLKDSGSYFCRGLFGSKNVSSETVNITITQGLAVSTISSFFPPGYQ
T4 sequence (P08637 17-208 F176V): as the sequence (P08637 17-208) above, with F160V counted along it

Row | Binder | Relative binding amount [1] [ratio] | Binding amount [2] | Relative value to KD between G1m and hFcγRs [3] [ratio] | Relative value to KD between G1m and hFcγRs [4] [ratio] | Relative value to KD between G1m and hFcγRs [5] [ratio] | Relative value to KD between G1m and hFcγRs [6] [ratio] | Relative value to KD between G1m and hFcγRs [7] [ratio] | Relative value to KD between G1m and hFcRn [8] [ratio]
1 | B1 | 3.1 | 0.025 RU per RU of captured antibody | 110 | 13 | 415 | 13.9 | 1.6 | 0.9
2 | B2 | 3.1 | 0.025 RU per RU of captured antibody | 159 | 8.2 | 537 | 7.1 | 1.3 | 0.8
3 | B3 | 3.1 | 0.025 RU per RU of captured antibody | 156 | 8.4 | 526 | 7.3 | 1.5 | 0.9
4 | B4 | 3.4 | 0.028 RU per RU of captured antibody | 106 | 14.2 | 408 | 16.1 | 1.2 | 0.8
5 | B5 | 3.2 | 0.026 RU per RU of captured antibody | 115 | 13.9 | 363 | 18 | 1.1 | 2.3
